This assay concerns the target T1, IL-2R CD122-CD132 on Jurkat-PD1+CD122+ cells (UniProt P14784 27-551; P31785 23-369).
T1 sequence (looked up) 1: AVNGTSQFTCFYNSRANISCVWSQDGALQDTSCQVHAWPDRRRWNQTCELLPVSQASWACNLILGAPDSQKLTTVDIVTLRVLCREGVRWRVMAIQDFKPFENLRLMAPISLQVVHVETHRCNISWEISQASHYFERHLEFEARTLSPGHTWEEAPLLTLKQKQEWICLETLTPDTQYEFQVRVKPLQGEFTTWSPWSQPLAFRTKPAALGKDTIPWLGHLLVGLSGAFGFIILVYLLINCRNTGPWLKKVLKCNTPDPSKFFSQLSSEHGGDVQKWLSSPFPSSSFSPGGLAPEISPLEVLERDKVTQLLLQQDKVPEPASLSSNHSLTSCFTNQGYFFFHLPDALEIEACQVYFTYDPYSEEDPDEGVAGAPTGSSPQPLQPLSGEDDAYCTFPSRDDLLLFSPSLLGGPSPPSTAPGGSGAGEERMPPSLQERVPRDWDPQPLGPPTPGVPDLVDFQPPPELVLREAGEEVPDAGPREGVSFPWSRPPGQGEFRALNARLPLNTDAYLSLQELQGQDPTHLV
T1 sequence (looked up) 2: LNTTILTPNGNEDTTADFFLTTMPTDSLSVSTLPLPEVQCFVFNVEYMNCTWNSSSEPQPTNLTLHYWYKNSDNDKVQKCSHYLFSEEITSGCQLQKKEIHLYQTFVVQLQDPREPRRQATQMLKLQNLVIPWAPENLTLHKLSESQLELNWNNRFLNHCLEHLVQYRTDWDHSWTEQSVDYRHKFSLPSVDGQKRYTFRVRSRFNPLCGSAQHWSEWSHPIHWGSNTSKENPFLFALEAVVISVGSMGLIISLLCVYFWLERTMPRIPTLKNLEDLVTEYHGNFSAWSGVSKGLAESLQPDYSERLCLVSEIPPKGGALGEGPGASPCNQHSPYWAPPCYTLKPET
The experiment in a line: cell-based or functional assay.

B1: GQM289 (bispecific antibody, human IgG1, kappa, lambda, L234A L235A)
heavy 1: EVQLLESGGGLVQPGGSLRLSCAASGFTFSINAMTWVRQAPGKGLEWVSTISGSGFSTYYADSLKGRFTISRDNSKNTLYLQMNSLRAEDTAVYYCAKEVYGDYWGQGTLVTVSSASTKGPSVFPLAPSSKSTSGGTAALGCLVKDYFPEPVTVSWNSGALTSGVHTFPAVLQSSGLYSLSSVVTVPSSSLGTQTYICNVNHKPSNTKVDKRVEPKSCDKTHTCPPCPAPEAAGGPSVFLFPPKPKDTLMISRTPEVTCVVVDVSHEDPEVKFNWYVDGVEVHNAKTKPREEQYNSTYRVVSVLTVLHQDWLNGKEYKCKVSNKALAAPIEKTISKAKGQPREPQVYTLPPSREEMTKNQVSLTCLVKGFYPSDIAVEWESNGQPENNYKTTPPVLDSDGSFFLTSKLTVDKSRWQQGNVFSCSVMHEALHNHYTQKSLSLSPGK
light 1: not shown
heavy 2: EVQLVQSGAEVKKPGESLKISCKGSGYAFTNYLIEWVRQMPGKGLEWMGVINPGSGGTNYNEKFKGQVTISADKSISTAYLQWSSLKASDTAMYYCARWRGEGYYAYFDVWGQGTTVTVSSASTKGPSVFPLAPSSKSTSGGTAALGCLVKDYFPEPVTVSWNSGALTSGVHTFPAVLQSSGLYSLSSVVTVPSSSLGTQTYICNVNHKPSNTKVDKRVEPKSCDKTHTCPPCPAPEAAGGPSVFLFPPKPKDTLMISRTPEVTCVVVDVSHEDPEVKFNWYVDGVEVHNAKTKPREEQYNSTYRVVSVLTVLHQDWLNGKEYKCKVSNKALAAPIEKTISKAKGQPREPQVYTLPPSREEMTKNQVSLYCLVKGFYPSDIAVEWESNGQPENNYKTTPPVLDSDGSFFLYSKLTVDKSRWQQGNVFSCSVMHEALHNHYTQKSLSLSPGK
light 2: not shown
As to B1, the “EC50 value for pSTAT5 induction, Jurkat-PD-1+CD122+ cells” value turned out to be 0.22 nM.

B2: LTJ498 (bispecific antibody, human IgG1, lambda, L234A L235A)
heavy 1: EVQLLESGGGLVQPGGSLRLSCAASGFTFSINAMTWVRQAPGKGLEWVSTISGSGFSTYYADSLKGRFTISRDNSKNTLYLQMNSLRAEDTAVYYCAKEVYGDYWGQGTLVTVSSASTKGPSVFPLAPSSKSTSGGTAALGCLVKDYFPEPVTVSWNSGALTSGVHTFPAVLQSSGLYSLSSVVTVPSSSLGTQTYICNVNHKPSNTKVDKRVEPKSCDKTHTCPPCPAPEAAGGPSVFLFPPKPKDTLMISRTPEVTCVVVDVSHEDPEVKFNWYVDGVEVHNAKTKPREEQYNSTYRVVSVLTVLHQDWLNGKEYKCKVSNKALAAPIEKTISKAKGQPREPQVYTLPPSREEMTKNQVSLTCLVKGFYPSDIAVEWESNGQPENNYKTTPPVLDSDGSFFLTSKLTVDKSRWQQGNVFSCSVMHEALHNHYTQKSLSLSPGK
light: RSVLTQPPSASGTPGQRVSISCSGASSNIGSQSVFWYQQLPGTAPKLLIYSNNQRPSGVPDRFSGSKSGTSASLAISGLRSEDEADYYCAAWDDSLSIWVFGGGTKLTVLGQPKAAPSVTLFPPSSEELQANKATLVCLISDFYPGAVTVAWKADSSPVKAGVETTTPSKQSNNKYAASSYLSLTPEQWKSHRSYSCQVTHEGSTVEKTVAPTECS
heavy 2: AIRLTQSPSSFSASTGDRVTITCKASQSVDYGGGNFHLRPRDLISNINVIVLELKGSETTFMCEYADETATIVEFLNRWITFSQSIISTLTPTSSSTKKTQLQLEHLLLDLQMILNGINNYKNPKLTRMLTFKFYMPKKATELKHLQCLEEELKPLEEVLNLAQSKGGGGDSYMNWYQQKPGKAPKLLIYAASNLESGVPSRFSGSGSGTDFTLTISSLQSEDFATYYCQQSNEDPYTFGGGTKVEIKGGGGSGGGGSGGGGSEVQLVQSGAEVKKPGESLKISCKGSGYAFTNYLIEWVRQMPGKGLEWMGVINPGSGGTNYNEKFKGQVTISADKSISTAYLQWSSLKASDTAMYYCARWRGEGYYAYFDVWGQGTTVTVSSGGGGSGGGGSEVQLLESGGGLVQPGGSLRLSCAASGFTFSINAMTWVRQAPGKGLEWVSTISGSGFSTYYADSLKGRFTISRDNSKNTLYLQMNSLRAEDTAVYYCAKEVYGDYWGQGTLVTVSSASTKGPSVFPLAPSSKSTSGGTAALGCLVKDYFPEPVTVSWNSGALTSGVHTFPAVLQSSGLYSLSSVVTVPSSSLGTQTYICNVNHKPSNTKVDKRVEPKSCDKTHTCPPCPAPEAAGGPSVFLFPPKPKDTLMISRTPEVTCVVVDVSHEDPEVKFNWYVDGVEVHNAKTKPREEQYNSTYRVVSVLTVLHQDWLNGKEYKCKVSNKALAAPIEKTISKAKGQPREPQVYTLPPSREEMTKNQVSLYCLVKGFYPSDIAVEWESNGQPENNYKTTPPVLDSDGSFFLYSKLTVDKSRWQQGNVFSCSVMHEALHNHYTQKSLSLSPGK
For B2, the “EC50 value for pSTAT5 induction, Jurkat-PD-1+CD122+ cells” value came to 0.24 nM.
